Measurements as given in patent US20160017052A1 (Genentech, published 2016).

Key:
human factor D [1] = molecular target: T1, human factor D (human, UniProt P00746 26-253); assay: cell-based or functional assay
human factor D [2] = molecular target: T1, human factor D; assay: SPR, KD compared with AFD.v14
Procedure: The flow rate was 30 μL/min, the running buffer was HBS-P+, the temperature of analysis was 25° C., real-time reference cell subtraction was employed, and dissociation following factor D injection was followed for 10 minutes. After subtraction of the sensorgram observed for injection of running buffer, data were analyzed according to a 1:1 model using BiaEval software v4.1 (GE Healthcare) to extract the kinetics and affinity constants.

T1 sequence (P00746 26-253 limits assumed): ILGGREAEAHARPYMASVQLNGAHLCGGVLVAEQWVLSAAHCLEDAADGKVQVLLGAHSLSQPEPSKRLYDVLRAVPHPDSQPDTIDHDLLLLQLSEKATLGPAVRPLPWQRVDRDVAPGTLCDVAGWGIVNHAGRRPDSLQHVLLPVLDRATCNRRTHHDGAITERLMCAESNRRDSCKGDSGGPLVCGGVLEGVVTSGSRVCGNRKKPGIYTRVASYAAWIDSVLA

Row | Binder | IC50 (nM) AP Hemolysis (human factor D [1]) [nM] | fold decrease in affinity for fD against SIESD.N103S (AFD.v14) (human factor D [2]) [fold]
1 | AFD.v7 (TM.D92E; VL-D30E:D31S VH-D62E VL-D92E) (Fab, V domains shown) VH: EVQLVQSGPELKKPGASVKVSCKASGYTFTNYGMNWVRQAPGQGLEWMGWINTYTGETTYAEDFKGRFVFSLDTSVSTAYLQISSLKAEDTAVYYCEREGGVNNWGQGTLVTVSS VL: DIQVTQSPSSLSASVGDRVTITCITSTDIESDMNWYQQKPGKVPKLLISGGNTLRPGVPSRFSGSGSGTDFTLTISSLQPEDVATYYCLQSESLPYTFGQGTKVEIKR | 3.8 | 
2 | AFD.v8 (SIESD; VL-D28S:D30E:D31S VH-D62E) (Fab, V domains shown) VH: EVQLVQSGPELKKPGASVKVSCKASGYTFTNYGMNWVRQAPGQGLEWMGWINTYTGETTYAEDFKGRFVFSLDTSVSTAYLQISSLKAEDTAVYYCEREGGVNNWGQGTLVTVSS VL: DIQVTQSPSSLSASVGDRVTITCITSTSIESDMNWYQQKPGKVPKLLISGGNTLRPGVPSRFSGSGSGTDFTLTISSLQPEDVATYYCLQSDSLPYTFGQGTKVEIKR | 4.2 | 
3 | AFD.v15 (SIESD.N103S.D92E; VL-D28S:D30E:D31S:D92E VH-D62E:N103S) (Fab, V domains shown, Fab variant) VH: EVQLVQSGPELKKPGASVKVSCKASGYTFTNYGMNWVRQAPGQGLEWMGWINTYTGETTYAEDFKGRFVFSLDTSVSTAYLQISSLKAEDTAVYYCEREGGVSNWGQGTLVTVSS VL: DIQVTQSPSSLSASVGDRVTITCITSTSIESDMNWYQQKPGKVPKLLISGGNTLRPGVPSRFSGSGSGTDFTLTISSLQPEDVATYYCLQSESLPYTFGQGTKVEIKR |  | 4
4 | AFD.v14 (SIESD.N103S; VL-D28S:D30E:D31S VH-D62E VH-N103S) (Fab, V domains shown) VH: EVQLVQSGPELKKPGASVKVSCKASGYTFTNYGMNWVRQAPGQGLEWMGWINTYTGETTYAEDFKGRFVFSLDTSVSTAYLQISSLKAEDTAVYYCEREGGVSNWGQGTLVTVSS VL: DIQVTQSPSSLSASVGDRVTITCITSTSIESDMNWYQQKPGKVPKLLISGGNTLRPGVPSRFSGSGSGTDFTLTISSLQPEDVATYYCLQSDSLPYTFGQGTKVEIKR | 4.1 | 
